Data on three molecules can be found in patent US20160235810A1, “METHODS OF TREATING DIABETES AND RELATED DISORDERS” (NOVARTIS AG, priority 2013, published 2016).

In test [1] the test system is diabetic non-human primates. Conditions: Kharitonenkov et al. 2007; cited from earlier work.
Test [2] concerns high fat diet-induced obese (DIO) mice. In words: OGTT after hydrodynamic injection (HDI) of vector encoding PIP/Sval1 in high fat DIO mice. The class given is in vivo. The text has this: To ascertain if this newly implicated factor can replicate some of the benefits shown by the RYGB surgery, a hydrodynamic gene delivery method was developed in-house. We tested the effect of delivery of DNA encoding the secreted factor PIP in vivo. The Fc-fusion proteins of PIP was encoded in pLEV113 vector, which was delivered via hydrodynamic injection (HDI) in high fat diet-induced obese (DIO) mice.
Mice, that were maintained for 12 weeks on high fat diet (60% Kcal fat, Research Diets), were sorted into groups based on their body weights and fed blood glucose levels. On the day of HDI of the PIP vector or control pLEV113 vector (30 ug/mouse), mice were placed in a restrainer and tails were cleaned with 70% alcohol. A 27-G butterfly needle connected with a 3 ml syringe was inserted into the tail vain, with bevel facing up, and pulled backwards on the syringe plunger to ensure blood was drawn into the syringe. The desired volumes (7% of body weight, up to a total of 3.2 mL) of DNA construct solution was injected over a short period (5-10 seconds) by hand. The needle was then withdrawn and bleeding stopped by adding pressure to the injection site with gauze.
After the HDI procedure, mice were monitored twice daily in the first 48 hours and then once per day for a week. Basal fed blood glucose levels in mice were measured at day 14, and blood samples were collected to obtain plasma for measuring Fc level or for endogenous protein levels in the future.
At day 16 post-HDI an OGTT was conducted to evaluate glucose handling and beta cell function. Basal and glucose-stimulated glucose and insulin levels were measured over 2-3 hours during the OGTT.
At day 30, basal blood glucose levels, changes in weight or food intake, and another functional tests, such as an OGTT, were performed for a 2nd time.
At day 40 post-HDI, the study was terminated by euthanization of mice and plasma collected for key metabolic biomarkers.

B1: FGF-21: Fibroblast Growth factor 21, an endocrine hormone; proposed fusion partner (protein)
chain: HPIPDSSPLLQFGGQVRQRYLYTDDAQQTEAHLEIREDGTVGGAADQSPESLLQLKALKPGVIQILGVKTSRFLCQRPDGALYGSLHFDPEACSFRELLLEDGYNVYQSEAHGLPLHLPGNKSPHRDPAPRGPARFLPLPGLPPALPEPPGILAPQPPDVGSSDPLSMVGPSQGRSPSYAS
Consider B1, for which, in test [1], the “increase in HDL cholesterol” value is given as approximately 80%.

B2: mouse PIP: mouse prolactin-inducible protein, delivered as DNA in pLEV113 vector via hydrodynamic injection (full length native and Fc-tagged tested) (protein, UniProt P02816 27-146, looked up)
Prolactin-inducible protein …: QDDENVRKPLLIEIDVPSTAQENQEITVQVTVETQYRECMVIKAYLVSNEPMEGAFNYVQTRCLCNDHPIRFFWDIIITRTVTFATVIDIVREKNICPNDMAVVPITANRYYTYNTVRMN
B2: in test [2] (hydrodynamic gene delivery, high fat DIO mice, glucose AUC 0-120 min, compared to vector control group), the “reduction in glucose area under the curve during an OGTT” value is reported as 30%. Also, the “increase in insulin area under the curve (GSIS) during an OGTT” value in test [2] (hydrodynamic gene delivery, high fat DIO mice, insulin AUC 0-30 min, compared to vector control group) is given as 72%.

B3: human PIP: human prolactin-inducible protein (GenBank NP_002643), here delivered via HDI of vector (protein, UniProt P12273 29-146, looked up)
Prolactin-inducible protein: QDNTRKIIIKNFDIPKSVRPNDEVTAVLAVQTELKECMVVKTYLISSIPLQGAFNYKYTACLCDDNPKTFYWDFYTNRTVQIAAVVDVIRELGICPDDAAVIPIKNNRFYTIEILKVE
As for B3, in test [2] (HDI administration in DIO mice), the “beta cell function compared to mouse Sval1” value was “improved beta cell function similar to that of mouse Sval1”.
